In US20220017591A1 (AstraZeneca / MedImmune, published 2022):

T1: human RXFP1 (human, UniProt Q9HBX9 1-757)
T1 sequence (looked up): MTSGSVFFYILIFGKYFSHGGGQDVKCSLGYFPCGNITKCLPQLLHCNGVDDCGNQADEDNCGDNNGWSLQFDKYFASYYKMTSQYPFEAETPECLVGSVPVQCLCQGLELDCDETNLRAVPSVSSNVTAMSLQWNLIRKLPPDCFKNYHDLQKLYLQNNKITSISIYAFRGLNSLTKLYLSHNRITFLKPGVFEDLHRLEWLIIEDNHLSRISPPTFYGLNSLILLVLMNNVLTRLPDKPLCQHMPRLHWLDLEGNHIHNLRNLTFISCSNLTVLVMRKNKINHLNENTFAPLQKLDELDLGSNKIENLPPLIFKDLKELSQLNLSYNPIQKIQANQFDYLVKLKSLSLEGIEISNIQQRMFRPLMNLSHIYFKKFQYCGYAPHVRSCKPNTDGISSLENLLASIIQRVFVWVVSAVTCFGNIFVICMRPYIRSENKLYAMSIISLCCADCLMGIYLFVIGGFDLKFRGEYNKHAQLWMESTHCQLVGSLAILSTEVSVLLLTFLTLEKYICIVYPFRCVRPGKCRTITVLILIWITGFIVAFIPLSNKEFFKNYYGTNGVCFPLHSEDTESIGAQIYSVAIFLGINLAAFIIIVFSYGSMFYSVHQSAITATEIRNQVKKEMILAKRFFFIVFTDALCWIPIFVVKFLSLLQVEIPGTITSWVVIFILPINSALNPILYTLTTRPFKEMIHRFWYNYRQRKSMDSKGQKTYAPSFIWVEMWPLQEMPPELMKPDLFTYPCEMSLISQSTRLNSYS

T2: mouse RXFP1 (mouse, UniProt Q6R6I7 1-758)
T2 sequence (looked up): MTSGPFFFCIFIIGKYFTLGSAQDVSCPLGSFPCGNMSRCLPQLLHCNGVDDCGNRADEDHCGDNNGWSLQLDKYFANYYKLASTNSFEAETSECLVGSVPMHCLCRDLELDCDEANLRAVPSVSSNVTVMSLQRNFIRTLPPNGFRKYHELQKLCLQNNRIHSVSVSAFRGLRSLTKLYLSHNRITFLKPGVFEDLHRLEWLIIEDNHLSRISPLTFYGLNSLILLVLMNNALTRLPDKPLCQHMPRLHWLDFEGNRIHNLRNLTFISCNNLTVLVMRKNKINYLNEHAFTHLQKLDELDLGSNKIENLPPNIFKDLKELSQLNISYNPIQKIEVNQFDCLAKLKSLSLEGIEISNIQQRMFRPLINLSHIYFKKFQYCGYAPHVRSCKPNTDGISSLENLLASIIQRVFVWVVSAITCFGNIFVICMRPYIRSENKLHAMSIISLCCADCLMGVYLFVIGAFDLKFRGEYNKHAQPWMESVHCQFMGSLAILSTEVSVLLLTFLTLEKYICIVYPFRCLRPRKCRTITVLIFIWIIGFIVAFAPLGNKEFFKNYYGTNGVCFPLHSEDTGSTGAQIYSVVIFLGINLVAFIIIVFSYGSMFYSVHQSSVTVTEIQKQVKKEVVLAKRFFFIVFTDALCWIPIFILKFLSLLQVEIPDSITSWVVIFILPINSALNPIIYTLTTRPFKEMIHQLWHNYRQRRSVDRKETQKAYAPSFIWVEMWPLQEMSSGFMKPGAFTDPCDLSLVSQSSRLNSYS

B1: RELAX0086 (Fc fusion)
chain 1: DKTHTCPPCPAPEFEGGPSVFLFPPKPKDTLMISRTPEVTCVVVDVSHEDPEVKFNWYVDGVEVHNAKTKPREEQYNSTYRVVSVLTVLHQDWLNGKEYKCKVSNKALPASIEKTISKAKGQPREPQVYTLPPCREEMTKNQVSLWCLVKGFYPSDIAVEWESNGQPENNYKTTPPVLDSDGSFFLYSKLTVDKSRWQQGNVFSCSVMHEALHNHYTQKSLSLSPGGGGGSGGGGSGGGGGSQLYSALANKCCHVGCTKRSLARFC
chain 2: DKTHTCPPCPAPEFEGGPSVFLFPPKPKDTLMISRTPEVTCVVVDVSHEDPEVKFNWYVDGVEVHNAKTKPREEQYNSTYRVVSVLTVLHQDWLNGKEYKCKVSNKALPASIEKTISKAKGQPREPQVCTLPPSREEMTKNQVSLSCAVKGFYPSDIAVEWESNGQPENNYKTTPPVLDSDGSFFLVSKLTVDKSRWQQGNVFSCSVMHEALHNHYTQKSLSLSPGGGGGSGGGGSGGGGSGGGGGSSWMEEVIKLCGRELVRAQIAICGMSTWS
B2: RELAX0110 (Fc fusion)
chain 1: DKTHTCPPCPAPEFEGGPSVFLFPPKPKDTLMISRTPEVTCVVVDVSHEDPEVKFNWYVDGVEVHNAKTKPREEQYNSTYRVVSVLTVLHQDWLNGKEYKCKVSNKALPASIEKTISKAKGQPREPQVYTLPPCREEMTKNQVSLWCLVKGFYPSDIAVEWESNGQPENNYKTTPPVLDSDGSFFLYSKLTVDKSRWQQGNVFSCSVMHEALHNHYTQKSLSLSPGGGGGSGGGGGSQLYSALANKCCHVGCTKRSLARFC
chain 2: DKTHTCPPCPAPEFEGGPSVFLFPPKPKDTLMISRTPEVTCVVVDVSHEDPEVKFNWYVDGVEVHNAKTKPREEQYNSTYRVVSVLTVLHQDWLNGKEYKCKVSNKALPASIEKTISKAKGQPREPQVYTLPPCREEMTKNQVSLWCLVKGFYPSDIAVEWESNGQPENNYKTTPPVLDSDGSFFLYSKLTVDKSRWQQGNVFSCSVMHEALHNHYTQKSLSLSPGAAPAPAPAPAPAPAGSSWMEEVIKLCGRELVRAQIAICGMSTWS
B3: RELAX0111 (Fc fusion)
chain 1: DKTHTCPPCPAPEFEGGPSVFLFPPKPKDTLMISRTPEVTCVVVDVSHEDPEVKFNWYVDGVEVHNAKTKPREEQYNSTYRVVSVLTVLHQDWLNGKEYKCKVSNKALPASIEKTISKAKGQPREPQVYTLPPCREEMTKNQVSLWCLVKGFYPSDIAVEWESNGQPENNYKTTPPVLDSDGSFFLYSKLTVDKSRWQQGNVFSCSVMHEALHNHYTQKSLSLSPGGGGGGSQLYSALANKCCHVGCTKRSLARFC
chain 2: B2 chain 2
B4: RELAX0085 (Fc fusion)
chain 1: DKTHTCPPCPAPEFEGGPSVFLFPPKPKDTLMISRTPEVTCVVVDVSHEDPEVKFNWYVDGVEVHNAKTKPREEQYNSTYRVVSVLTVLHQDWLNGKEYKCKVSNKALPASIEKTISKAKGQPREPQVYTLPPCREEMTKNQVSLWCLVKGFYPSDIAVEWESNGQPENNYKTTPPVLDSDGSFFLYSKLTVDKSRWQQGNVFSCSVMHEALHNHYTQKSLSLSPGGGGGSGGGGSGGGGSGGGGGSQLYSALANKCCHVGCTKRSLARFC
chain 2: DKTHTCPPCPAPEFEGGPSVFLFPPKPKDTLMISRTPEVTCVVVDVSHEDPEVKFNWYVDGVEVHNAKTKPREEQYNSTYRVVSVLTVLHQDWLNGKEYKCKVSNKALPASIEKTISKAKGQPREPQVCTLPPSREEMTKNQVSLSCAVKGFYPSDIAVEWESNGQPENNYKTTPPVLDSDGSFFLVSKLTVDKSRWQQGNVFSCSVMHEALHNHYTQKSLSLSPGAPAPAPAPAPAPAPAPAPAGSSWMEEVIKLCGRELVRAQIAICGMSTWS
B5: RELAX0107 (Fc fusion)
chain 1: B3 chain 1
chain 2: B4 chain 2
B6: RELAX0105 (Fc fusion)
chain 1: B1 chain 1
chain 2: B4 chain 2
B7: RELAX0106 (Fc fusion)
chain 1: B2 chain 1
chain 2: B4 chain 2
B8: RELAX0087 (Fc fusion)
chain 1: B4 chain 1
chain 2: DKTHTCPPCPAPEFEGGPSVFLFPPKPKDTLMISRTPEVTCVVVDVSHEDPEVKFNWYVDGVEVHNAKTKPREEQYNSTYRVVSVLTVLHQDWLNGKEYKCKVSNKALPASIEKTISKAKGQPREPQVCTLPPSREEMTKNQVSLSCAVKGFYPSDIAVEWESNGQPENNYKTTPPVLDSDGSFFLVSKLTVDKSRWQQGNVFSCSVMHEALHNHYTQKSLSLSPGGGGGSGGGGSGGGGGSSWMEEVIKLCGRELVRAQIAICGMSTWS

Assays:
Experiment in all cases: cell-based or functional assay
[1] = target: human RXFP2 (human, UniProt Q8WXD0 1-754)
[2] = target: T1, human RXFP1
[3] = target: T2, mouse RXFP1

human RXFP2, sequence (Q8WXD0 whole entry): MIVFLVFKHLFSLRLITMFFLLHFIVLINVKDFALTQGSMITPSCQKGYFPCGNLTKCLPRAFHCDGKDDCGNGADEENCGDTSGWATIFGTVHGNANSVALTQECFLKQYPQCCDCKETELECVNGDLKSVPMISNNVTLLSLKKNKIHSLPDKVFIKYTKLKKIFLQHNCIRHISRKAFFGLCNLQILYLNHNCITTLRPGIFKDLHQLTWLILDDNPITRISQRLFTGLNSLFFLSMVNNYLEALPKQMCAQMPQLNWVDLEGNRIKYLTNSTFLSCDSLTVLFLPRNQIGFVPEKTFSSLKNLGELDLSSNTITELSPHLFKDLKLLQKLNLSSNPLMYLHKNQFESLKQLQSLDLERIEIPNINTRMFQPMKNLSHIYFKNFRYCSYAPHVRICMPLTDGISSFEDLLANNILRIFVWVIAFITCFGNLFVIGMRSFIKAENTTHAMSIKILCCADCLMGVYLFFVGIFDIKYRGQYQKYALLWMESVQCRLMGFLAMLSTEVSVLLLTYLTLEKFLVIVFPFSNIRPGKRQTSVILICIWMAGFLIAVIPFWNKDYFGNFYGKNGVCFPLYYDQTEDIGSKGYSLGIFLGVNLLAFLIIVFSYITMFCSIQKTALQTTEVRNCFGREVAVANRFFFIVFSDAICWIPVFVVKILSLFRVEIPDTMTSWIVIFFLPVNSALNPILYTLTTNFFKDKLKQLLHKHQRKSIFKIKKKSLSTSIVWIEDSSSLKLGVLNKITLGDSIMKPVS

Binder	EC50 hRXFP2 (M), cAMP assay [1]	EC50 hRXFP1 (M), cAMP assay [2]	EC50 mRXFP1 (M), cAMP assay [3]
B1	4.88e-08 M	4.49e-11 M	2.68e-11 M
B2	> 6.07e-08 M	1.88e-09 M	1.11e-09 M
B3	> 6.06e-08 M	1.93e-09 M	1.24e-09 M
B4	4.67e-08 M	6.37e-11 M	3.09e-11 M
B5	1.22e-07 M	8.09e-11 M	3.87e-11 M
B6	3.33e-08 M	7.12e-11 M	1.49e-11 M
B7	4.94e-08 M	6.96e-11 M	1.98e-11 M
B8	3.63e-08 M	4.89e-11 M	3.48e-11 M
